From paper PMC4434323

Columns and labels:
[1] = biological target: T1, ceh-51 (Y80D3A.3) (Caenorhabditis elegans) (UniProt Q9U1R1)
T1 sequence: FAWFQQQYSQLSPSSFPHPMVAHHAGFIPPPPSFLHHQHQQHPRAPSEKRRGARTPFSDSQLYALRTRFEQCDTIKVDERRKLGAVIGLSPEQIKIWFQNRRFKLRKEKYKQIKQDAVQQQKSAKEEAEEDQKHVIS

[2] = biological target: T2, ceh-23 (ZK652.5) (Caenorhabditis elegans) (UniProt P34663)
T2 sequence: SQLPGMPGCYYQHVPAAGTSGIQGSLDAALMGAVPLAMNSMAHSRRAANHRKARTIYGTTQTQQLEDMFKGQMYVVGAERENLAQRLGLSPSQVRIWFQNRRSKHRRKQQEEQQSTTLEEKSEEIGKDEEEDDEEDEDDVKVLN

[3] = biological target: T3, C07E3.6 (C07E3.6) (Caenorhabditis elegans) (UniProt Q17792)
T3 sequence: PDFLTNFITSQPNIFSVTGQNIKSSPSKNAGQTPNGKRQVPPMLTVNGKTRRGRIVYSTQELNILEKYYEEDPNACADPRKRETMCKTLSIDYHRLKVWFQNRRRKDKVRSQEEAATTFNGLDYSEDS

[4] = biological target: T4, ceh-90 (R03E1.4) (Caenorhabditis elegans) (UniProt Q69YW8)
T4 sequence: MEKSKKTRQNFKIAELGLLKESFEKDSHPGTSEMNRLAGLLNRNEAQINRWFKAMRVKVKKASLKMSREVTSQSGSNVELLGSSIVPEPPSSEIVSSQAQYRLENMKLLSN

[5] = biological target: T5, eyg-1 (Y53C12C.1) (Caenorhabditis elegans) (UniProt O01996)
T5 sequence: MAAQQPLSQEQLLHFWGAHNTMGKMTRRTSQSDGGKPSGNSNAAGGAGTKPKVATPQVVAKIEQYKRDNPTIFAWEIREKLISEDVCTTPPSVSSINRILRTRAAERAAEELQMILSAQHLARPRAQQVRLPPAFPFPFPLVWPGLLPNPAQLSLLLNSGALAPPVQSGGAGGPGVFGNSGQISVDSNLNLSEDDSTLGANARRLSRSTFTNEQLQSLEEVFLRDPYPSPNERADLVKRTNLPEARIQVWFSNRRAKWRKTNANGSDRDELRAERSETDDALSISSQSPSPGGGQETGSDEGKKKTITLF

[6] = tested on: ceh-53 (C09G12.1) (Caenorhabditis elegans)
ceh-53 (C09G12.1) (Caenorhabditis elegans), sequence (chain, as listed by the source): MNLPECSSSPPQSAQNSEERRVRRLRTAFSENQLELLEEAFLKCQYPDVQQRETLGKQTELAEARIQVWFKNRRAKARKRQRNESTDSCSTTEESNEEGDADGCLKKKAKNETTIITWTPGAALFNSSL

[7] = biological target: ceh-36 (C37E2.4) (Caenorhabditis elegans) (UniProt Q93352)
ceh-36 (C37E2.4) (Caenorhabditis elegans), sequence (Q93352 6-165): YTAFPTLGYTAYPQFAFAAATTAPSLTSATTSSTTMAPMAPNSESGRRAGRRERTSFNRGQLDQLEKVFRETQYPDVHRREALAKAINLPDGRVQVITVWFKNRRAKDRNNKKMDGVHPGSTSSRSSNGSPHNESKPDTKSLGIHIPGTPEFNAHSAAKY

[8] = biological target: ceh-37 (C37E2.5) (Caenorhabditis elegans) (UniProt Q93356)
ceh-37 (C37E2.5) (Caenorhabditis elegans), sequence (Q93356 1-148): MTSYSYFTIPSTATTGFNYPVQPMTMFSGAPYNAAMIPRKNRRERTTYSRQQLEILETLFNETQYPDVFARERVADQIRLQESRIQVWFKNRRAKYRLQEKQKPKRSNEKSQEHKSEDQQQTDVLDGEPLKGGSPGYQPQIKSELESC

GCACTTAA (double strand) [8-mer GCACTTAA]
binding signal (PBM E-score (-0.5 to 0.5)) [1]: 0.469

TAATTACA (double strand) [8-mer TAATTACA]
binding signal (PBM E-score (-0.5 to 0.5)) [1]: 0.467

ATTAATTA (double strand) [8-mer ATTAATTA]
binding signal (PBM E-score (-0.5 to 0.5)) [1]: 0.474
binding signal (PBM E-score (-0.5 to 0.5)) [2]: 0.495
binding signal (PBM E-score (-0.5 to 0.5)) [3]: 0.495

GGTTTTAA (double strand) [8-mer GGTTTTAA]
binding signal (PBM E-score (-0.5 to 0.5)) [4]: 0.498

GTAATTAC (double strand) [8-mer GTAATTAC]
binding signal (PBM E-score (-0.5 to 0.5)) [1]: 0.478
binding signal (PBM E-score (-0.5 to 0.5)) [5]: 0.482

GTTAATTA (double strand) [8-mer GTTAATTA]
binding signal (PBM E-score (-0.5 to 0.5)) [5]: 0.481
binding signal (PBM E-score (-0.5 to 0.5)) [2]: 0.497
binding signal (PBM E-score (-0.5 to 0.5)) [3]: 0.498

GCGGATTA (double strand) [8-mer GCGGATTA]
binding signal (PBM E-score (-0.5 to 0.5)) [6]: 0.494
binding signal (PBM E-score (-0.5 to 0.5)) [7]: 0.491
binding signal (PBM E-score (-0.5 to 0.5)) [8]: 0.491

AGTTTTAA (double strand) [8-mer AGTTTTAA]
binding signal (PBM E-score (-0.5 to 0.5)) [4]: 0.492

GATAATTA (double strand) [8-mer GATAATTA]
binding signal (PBM E-score (-0.5 to 0.5)) [5]: 0.48
binding signal (PBM E-score (-0.5 to 0.5)) [2]: 0.492
binding signal (PBM E-score (-0.5 to 0.5)) [3]: 0.497

AGGGATTA (double strand) [8-mer AGGGATTA]
binding signal (PBM E-score (-0.5 to 0.5)) [8]: 0.487

GTAATTAA (double strand) [8-mer GTAATTAA]
binding signal (PBM E-score (-0.5 to 0.5)) [2]: 0.492
binding signal (PBM E-score (-0.5 to 0.5)) [3]: 0.497

ATTAATCC (double strand) [8-mer ATTAATCC]
binding signal (PBM E-score (-0.5 to 0.5)) [6]: 0.495
binding signal (PBM E-score (-0.5 to 0.5)) [7]: 0.494
binding signal (PBM E-score (-0.5 to 0.5)) [8]: 0.492

ATGCGCAT (double strand) [8-mer ATGCGCAT]
binding signal (PBM E-score (-0.5 to 0.5)) [5]: 0.475

GGTTTTTA (double strand) [8-mer GGTTTTTA]
binding signal (PBM E-score (-0.5 to 0.5)) [4]: 0.485

GATAATCC (double strand) [8-mer GATAATCC]
binding signal (PBM E-score (-0.5 to 0.5)) [8]: 0.491

ATATAATA (double strand) [8-mer ATATAATA]
binding signal (PBM E-score (-0.5 to 0.5)) [1]: 0.472

AGGTTTTA (double strand) [8-mer AGGTTTTA]
binding signal (PBM E-score (-0.5 to 0.5)) [4]: 0.496

GGGTTTTA (double strand) [8-mer GGGTTTTA]
binding signal (PBM E-score (-0.5 to 0.5)) [4]: 0.498

GGATTAAA (double strand) [8-mer GGATTAAA]
binding signal (PBM E-score (-0.5 to 0.5)) [7]: 0.49
binding signal (PBM E-score (-0.5 to 0.5)) [8]: 0.488

CTAATTAG (double strand) [8-mer CTAATTAG]
binding signal (PBM E-score (-0.5 to 0.5)) [5]: 0.473
binding signal (PBM E-score (-0.5 to 0.5)) [2]: 0.495
binding signal (PBM E-score (-0.5 to 0.5)) [3]: 0.497

ATCAATTA (double strand) [8-mer ATCAATTA]
binding signal (PBM E-score (-0.5 to 0.5)) [5]: 0.475

GGGGATTA (double strand) [8-mer GGGGATTA]
binding signal (PBM E-score (-0.5 to 0.5)) [6]: 0.497
binding signal (PBM E-score (-0.5 to 0.5)) [7]: 0.495
binding signal (PBM E-score (-0.5 to 0.5)) [8]: 0.494

ATTAATTG (double strand) [8-mer ATTAATTG]
binding signal (PBM E-score (-0.5 to 0.5)) [1]: 0.472
binding signal (PBM E-score (-0.5 to 0.5)) [5]: 0.478

AGTTTTAG (double strand) [8-mer AGTTTTAG]
binding signal (PBM E-score (-0.5 to 0.5)) [4]: 0.486

ATTAAGTG (double strand) [8-mer ATTAAGTG]
binding signal (PBM E-score (-0.5 to 0.5)) [1]: 0.472

AGGATTAA (double strand) [8-mer AGGATTAA]
binding signal (PBM E-score (-0.5 to 0.5)) [6]: 0.494
binding signal (PBM E-score (-0.5 to 0.5)) [7]: 0.492
binding signal (PBM E-score (-0.5 to 0.5)) [8]: 0.491

TAATTAAA (double strand) [8-mer TAATTAAA]
binding signal (PBM E-score (-0.5 to 0.5)) [2]: 0.493

ACTAATTA (double strand) [8-mer ACTAATTA]
binding signal (PBM E-score (-0.5 to 0.5)) [5]: 0.477
binding signal (PBM E-score (-0.5 to 0.5)) [2]: 0.495
binding signal (PBM E-score (-0.5 to 0.5)) [3]: 0.498

TATTAATA (double strand) [8-mer TATTAATA]
binding signal (PBM E-score (-0.5 to 0.5)) [1]: 0.483

CTTAATTA (double strand) [8-mer CTTAATTA]
binding signal (PBM E-score (-0.5 to 0.5)) [5]: 0.482
binding signal (PBM E-score (-0.5 to 0.5)) [2]: 0.494
binding signal (PBM E-score (-0.5 to 0.5)) [3]: 0.497

ATTAATGA (double strand) [8-mer ATTAATGA]
binding signal (PBM E-score (-0.5 to 0.5)) [1]: 0.469

TTAATTAA (double strand) [8-mer TTAATTAA]
binding signal (PBM E-score (-0.5 to 0.5)) [5]: 0.487
binding signal (PBM E-score (-0.5 to 0.5)) [2]: 0.497
binding signal (PBM E-score (-0.5 to 0.5)) [3]: 0.496

CTAAAACC (double strand) [8-mer CTAAAACC]
binding signal (PBM E-score (-0.5 to 0.5)) [4]: 0.493

ATTAATAG (double strand) [8-mer ATTAATAG]
binding signal (PBM E-score (-0.5 to 0.5)) [1]: 0.478

TAAAACCA (double strand) [8-mer TAAAACCA]
binding signal (PBM E-score (-0.5 to 0.5)) [4]: 0.488

CTAATTAA (double strand) [8-mer CTAATTAA]
binding signal (PBM E-score (-0.5 to 0.5)) [5]: 0.489
binding signal (PBM E-score (-0.5 to 0.5)) [2]: 0.498
binding signal (PBM E-score (-0.5 to 0.5)) [3]: 0.498

CCAATTAA (double strand) [8-mer CCAATTAA]
binding signal (PBM E-score (-0.5 to 0.5)) [5]: 0.479

ATAATTAA (double strand) [8-mer ATAATTAA]
binding signal (PBM E-score (-0.5 to 0.5)) [2]: 0.493

GTTAAAAC (double strand) [8-mer GTTAAAAC]
binding signal (PBM E-score (-0.5 to 0.5)) [4]: 0.492

GCAATTAA (double strand) [8-mer GCAATTAA]
binding signal (PBM E-score (-0.5 to 0.5)) [1]: 0.473

CTTAATCC (double strand) [8-mer CTTAATCC]
binding signal (PBM E-score (-0.5 to 0.5)) [6]: 0.494
binding signal (PBM E-score (-0.5 to 0.5)) [7]: 0.489

AAGGATTA (double strand) [8-mer AAGGATTA]
binding signal (PBM E-score (-0.5 to 0.5)) [6]: 0.495
binding signal (PBM E-score (-0.5 to 0.5)) [7]: 0.492
binding signal (PBM E-score (-0.5 to 0.5)) [8]: 0.493

ACGGATTA (double strand) [8-mer ACGGATTA]
binding signal (PBM E-score (-0.5 to 0.5)) [6]: 0.494
binding signal (PBM E-score (-0.5 to 0.5)) [8]: 0.487

ATTAAAAC (double strand) [8-mer ATTAAAAC]
binding signal (PBM E-score (-0.5 to 0.5)) [4]: 0.487

GGATTAAC (double strand) [8-mer GGATTAAC]
binding signal (PBM E-score (-0.5 to 0.5)) [6]: 0.495
binding signal (PBM E-score (-0.5 to 0.5)) [7]: 0.49
binding signal (PBM E-score (-0.5 to 0.5)) [8]: 0.492

GGTAATTA (double strand) [8-mer GGTAATTA]
binding signal (PBM E-score (-0.5 to 0.5)) [2]: 0.494
binding signal (PBM E-score (-0.5 to 0.5)) [3]: 0.497

ATAAAACC (double strand) [8-mer ATAAAACC]
binding signal (PBM E-score (-0.5 to 0.5)) [4]: 0.495

ACTAAAAC (double strand) [8-mer ACTAAAAC]
binding signal (PBM E-score (-0.5 to 0.5)) [4]: 0.487

ATTAATAA (double strand) [8-mer ATTAATAA]
binding signal (PBM E-score (-0.5 to 0.5)) [1]: 0.474

GGGTTTAA (double strand) [8-mer GGGTTTAA]
binding signal (PBM E-score (-0.5 to 0.5)) [4]: 0.487

CGGATTAA (double strand) [8-mer CGGATTAA]
binding signal (PBM E-score (-0.5 to 0.5)) [6]: 0.494
binding signal (PBM E-score (-0.5 to 0.5)) [7]: 0.489
binding signal (PBM E-score (-0.5 to 0.5)) [8]: 0.492

AAGTTTTA (double strand) [8-mer AAGTTTTA]
binding signal (PBM E-score (-0.5 to 0.5)) [4]: 0.492

TAATCCGA (double strand) [8-mer TAATCCGA]
binding signal (PBM E-score (-0.5 to 0.5)) [8]: 0.489

CAATTAAC (double strand) [8-mer CAATTAAC]
binding signal (PBM E-score (-0.5 to 0.5)) [5]: 0.476
binding signal (PBM E-score (-0.5 to 0.5)) [3]: 0.495

AGGATTAG (double strand) [8-mer AGGATTAG]
binding signal (PBM E-score (-0.5 to 0.5)) [6]: 0.496
binding signal (PBM E-score (-0.5 to 0.5)) [7]: 0.492

GCTAATCC (double strand) [8-mer GCTAATCC]
binding signal (PBM E-score (-0.5 to 0.5)) [6]: 0.497
binding signal (PBM E-score (-0.5 to 0.5)) [7]: 0.493
binding signal (PBM E-score (-0.5 to 0.5)) [8]: 0.49

ATAATCCG (double strand) [8-mer ATAATCCG]
binding signal (PBM E-score (-0.5 to 0.5)) [8]: 0.49

GCTATTAA (double strand) [8-mer GCTATTAA]
binding signal (PBM E-score (-0.5 to 0.5)) [1]: 0.467

CCTAATTA (double strand) [8-mer CCTAATTA]
binding signal (PBM E-score (-0.5 to 0.5)) [2]: 0.495
binding signal (PBM E-score (-0.5 to 0.5)) [3]: 0.496

GGGATTAA (double strand) [8-mer GGGATTAA]
binding signal (PBM E-score (-0.5 to 0.5)) [6]: 0.496
binding signal (PBM E-score (-0.5 to 0.5)) [7]: 0.494
binding signal (PBM E-score (-0.5 to 0.5)) [8]: 0.493

CTTAAAAC (double strand) [8-mer CTTAAAAC]
binding signal (PBM E-score (-0.5 to 0.5)) [4]: 0.494

TCAATTAA (double strand) [8-mer TCAATTAA]
binding signal (PBM E-score (-0.5 to 0.5)) [1]: 0.467
binding signal (PBM E-score (-0.5 to 0.5)) [5]: 0.48

CTAATCCC (double strand) [8-mer CTAATCCC]
binding signal (PBM E-score (-0.5 to 0.5)) [6]: 0.496
binding signal (PBM E-score (-0.5 to 0.5)) [7]: 0.49
